T1: Class II MHC (mouse, on splenocytes and lymphoid organs) (mouse, UniProt P14434 24-256; P14483 28-265)
T1 construct: whole, on cells; also called Class II MHC products; Class II MHC molecules
T1 sequence (MHC II alpha, looked up): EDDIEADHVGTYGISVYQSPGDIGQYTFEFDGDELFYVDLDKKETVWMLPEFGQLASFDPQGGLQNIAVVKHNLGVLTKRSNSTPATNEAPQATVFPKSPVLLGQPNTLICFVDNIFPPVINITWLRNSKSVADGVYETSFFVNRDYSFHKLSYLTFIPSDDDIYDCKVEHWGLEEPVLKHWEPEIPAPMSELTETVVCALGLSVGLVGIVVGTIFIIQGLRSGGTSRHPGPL
T1 sequence (MHC II beta, looked up): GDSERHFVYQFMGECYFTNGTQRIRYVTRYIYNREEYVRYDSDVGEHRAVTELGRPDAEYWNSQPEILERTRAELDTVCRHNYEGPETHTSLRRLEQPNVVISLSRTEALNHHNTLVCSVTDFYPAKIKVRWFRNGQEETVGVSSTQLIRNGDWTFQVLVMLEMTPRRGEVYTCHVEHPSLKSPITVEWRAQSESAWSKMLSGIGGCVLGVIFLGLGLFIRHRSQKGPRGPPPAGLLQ


Columns and labels:
[1] = target: T2, CD11b (mouse, on the CD11b+ mutuDC dendritic cell line and on myeloid cells in vivo) (mouse, UniProt P05555 17-1153); assay: FACS, CD11b+ mutuDC dendritic cell line stained in vitro with Alexa647-labeled DC13 monomer or dimer; reference DC13 monomer
T2 construct: whole, on cells; On cells CD11b is paired with CD18
T2 sequence (P05555 17-1153): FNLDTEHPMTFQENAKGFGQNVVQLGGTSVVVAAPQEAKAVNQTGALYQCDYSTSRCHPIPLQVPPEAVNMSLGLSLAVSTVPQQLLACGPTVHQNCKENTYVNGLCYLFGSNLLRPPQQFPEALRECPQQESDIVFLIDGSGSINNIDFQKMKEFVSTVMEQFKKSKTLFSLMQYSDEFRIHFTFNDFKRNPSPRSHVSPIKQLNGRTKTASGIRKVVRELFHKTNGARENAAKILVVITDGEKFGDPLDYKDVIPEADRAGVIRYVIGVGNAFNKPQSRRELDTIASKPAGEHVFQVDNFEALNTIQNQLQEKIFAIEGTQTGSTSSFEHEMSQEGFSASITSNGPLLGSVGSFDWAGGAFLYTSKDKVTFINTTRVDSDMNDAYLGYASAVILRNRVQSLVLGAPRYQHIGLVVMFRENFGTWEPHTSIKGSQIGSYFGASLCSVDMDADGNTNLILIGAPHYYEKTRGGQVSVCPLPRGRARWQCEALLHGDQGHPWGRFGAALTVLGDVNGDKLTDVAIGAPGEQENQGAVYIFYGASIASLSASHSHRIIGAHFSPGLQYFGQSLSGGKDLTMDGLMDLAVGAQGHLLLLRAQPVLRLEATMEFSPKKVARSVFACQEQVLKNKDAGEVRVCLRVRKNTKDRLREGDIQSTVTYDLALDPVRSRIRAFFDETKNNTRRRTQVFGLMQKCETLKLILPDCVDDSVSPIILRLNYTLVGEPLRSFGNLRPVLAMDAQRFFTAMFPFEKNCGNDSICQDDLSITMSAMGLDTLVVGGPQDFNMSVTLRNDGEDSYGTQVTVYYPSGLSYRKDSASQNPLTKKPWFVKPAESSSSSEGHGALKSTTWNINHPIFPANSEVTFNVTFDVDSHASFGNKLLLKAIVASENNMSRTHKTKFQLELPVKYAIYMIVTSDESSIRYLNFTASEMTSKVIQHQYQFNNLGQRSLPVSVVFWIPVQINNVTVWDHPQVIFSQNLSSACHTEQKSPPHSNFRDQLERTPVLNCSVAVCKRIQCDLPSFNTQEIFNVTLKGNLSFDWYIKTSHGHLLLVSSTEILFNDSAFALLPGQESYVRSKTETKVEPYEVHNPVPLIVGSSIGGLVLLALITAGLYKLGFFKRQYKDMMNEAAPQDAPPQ
Description: (§1) FIGS. 3A-3D (FIGS. 3A-3B) show dimers that are able to stain their targets with increased efficiency compared to their corresponding monomers; for FIG. 3A: cells were stained in vitro with the indicated concentrations of Alexa647-labeled VHH monomers or dimers; for FIG. 3B: equal amount of DC8 monomer and DC8-dimer is injected IV. 2 h p.i., the mice are euthanized and spleens are excised for two-photon imaging. (FIG. 3C) Equal amount of DC8 with or without PEG, both equipped with Texas Red is injected IV. 3 h p.i., the mice are euthanized and spleens are excised for two-photon imaging. (FIG. 3D) Equal amount of DC8 with or without PEG (0.4 nmols), all equipped with Alexa647 is injected IV. 3 h p.i., the mice are euthanized and spleen is excised. Cells were harvested and analyzed with FACS.
(§2) Four sortase substrates were designed and synthesized for production of dimers or PEGylated VHHs (FIG. 1). The substrates either contain two bioorthogonal handles or a handle and a fluorophore. The Alexa647-labeled substrate was designed such that the reaction products could be used in FACS experiments to estimate relative in vitro binding affinities. […] For DC8 (anti Class II), splenocytes were stained with different concentrations of monomers and dimers and analyzed by FACS. […] The in vivo binding characteristics of the VHH dimers versus monomers were evaluated. […]

[2] = target: T1, Class II MHC (mouse, on splenocytes and …); assay: FACS, splenocytes stained in vitro with different concentrations of Alexa647-labeled DC8 monomer or dimer; reference DC8 monomer
Description: as §1, §2

[3] = target: T1, Class II MHC (mouse, on splenocytes and …); assay: FACS of spleen cells harvested 3 h after i.v. injection of Alexa647-labeled VHH into B6 mice; reference non-PEGylated DC8
Text: Specificity was established by blocking the targets of these VHHs by introduction of unlabeled VHHs as competitors prior to imaging. […] To further confirm the specificity of the dimers in the absence of competing VHHs, MHC II^{-/-} and CD11b^{-/-} mice were imaged. No PET signals were detected in lymphoid organs, further confirming the specificity of both dimers (FIGS. 4E-4G). […] These experiments helped set the stage to explore ability of VHH dimers to image tumors. Two types of tumors were imaged with the developed bivalent VHHs by engraftment of mice with the B16 melanoma or the pancreatic tumor cell line panc02. Both the dimers readily detected the lymphoid organs as well as the B16 melanoma tumor or the panc02 graft. Upon excision, the panc-tumors were no more than ˜1-2 mm in diameter, showing the method to be sensitive. Postmortem biodistribution analysis correlated well with the FACS and two-photon results as well (FIGS. 5A-5B). It was examined whether circulatory half-life could be manipulated to further improve the signal to noise ratio. PEGylation of VHHs results in increased circulatory half-life, where the increase correlates with the size of the attached PEG group^{[15]}. VHHs sortagged with substrate 2 or 3 were reacted with DBCO-functionalized PEG (5 kDa, 10 kDa or 20 kDa) to yield the final PEGylated VHHs (FIGS. 2E-2F). B6 mice received 5 μg of PEGylated VHH and were euthanized 3 h later, followed by dissection of lymph nodes and spleen for FACS and two-photon microscopy.

| Binder | percent increase in staining versus non-PEGylated DC8 [3] [%] | further results |
| --- | --- | --- |
| DC13 dimer (bivalent anti CD11b VHH, two DC13 joined via their C-termini by sortase and DBCO-azide click chemistry) (VHH, C-terminal (Gly)3 continues as -PEG12-Cys(Alexa647, Texas Red or TCO/18F-tetrazine)-PEG5-Lys(azide); the azide is clicked to the DBCO of the other chain; C-terminal Cys carries maleimide-DBCO, clicked to the azide of the other chain, Label differs by assay (Alexa647, 18F); also called DC13-dimer-Alexa647; 18F-DC13 dimer) VHH 1: QVQLQESGGGLVQTGGSLRLSCAASGVDFNWYSMGWFRQAPGKEREYVASIDQGGELDYAISVKGRFTISRDNAKNMVYLQMNSLKPEDTAVYYCAADFSGRGASNPDKYKYWGQGTQVTVSS VHH 2: QVQLQESGGGLVQTGGSLRLSCAASGVDFNWYSMGWFRQAPGKEREYVASIDQGGELDYAISVKGRFTISRDNAKNMVYLQMNSLKPEDTAVYYCAADFSGRGASNPDKYKYWGQGTQVTVSS | – | fold better binding than the corresponding monomer [1]: ~2.3 fold |
| DC8 dimer (bivalent anti Class II MHC VHH, two DC8 joined via their C-termini by sortase and DBCO-azide click chemistry) (VHH, C-terminal (Gly)3 continues as -PEG12-Cys(Alexa647, Texas Red or TCO/18F-tetrazine)-PEG5-Lys(azide); the azide is clicked to the DBCO of the other chain; C-terminal Cys carries maleimide-DBCO, clicked to the azide of the other chain, Label differs by assay (Alexa647, Texas Red, 18F); also called 18F-DC8 dimer; anti Class II MHC dimer) VHH 1: QVQLQESGGGLVQPGGSLRLSCTASGFTFSTYYMSWVRKAPGKGPEWVSVMNSSGGDTRYADFVKGRFTISRDNAKNTLYLQMNSLKPEDTALYYCAQGRSDIYPTFTRGQGTQVTVSS VHH 2: QVQLQESGGGLVQPGGSLRLSCTASGFTFSTYYMSWVRKAPGKGPEWVSVMNSSGGDTRYADFVKGRFTISRDNAKNTLYLQMNSLKPEDTALYYCAQGRSDIYPTFTRGQGTQVTVSS | – | fold better binding than the corresponding monomer [2]: ~3.3 fold |
| DC8-alexa647-PEG-5 kDa (site-specifically PEGylated DC8) (VHH, C-terminal (Gly)3 continues as -PEG12-Cys(Alexa647, Texas Red or TCO/18F-tetrazine)-PEG5-Lys(azide); the azide is clicked to DBCO-PEG 5 kDa, Alexa647 form used for FACS, 18F form for PET and biodistribution; also called 5 kDa PEG-conjugated DC8; PEGylated DC8-Alexa647) VHH: QVQLQESGGGLVQPGGSLRLSCTASGFTFSTYYMSWVRKAPGKGPEWVSVMNSSGGDTRYADFVKGRFTISRDNAKNTLYLQMNSLKPEDTALYYCAQGRSDIYPTFTRGQGTQVTVSS | ~30 | – |
| DC8-alexa647-PEG-10 kDa (site-specifically PEGylated DC8) (VHH, C-terminal (Gly)3 continues as -PEG12-Cys(Alexa647, Texas Red or TCO/18F-tetrazine)-PEG5-Lys(azide); the azide is clicked to DBCO-PEG 10 kDa, Alexa647 form used for FACS, 18F form for PET and biodistribution; also called 10 kDa PEG-conjugated DC8; PEGylated DC8-Alexa647) VHH: QVQLQESGGGLVQPGGSLRLSCTASGFTFSTYYMSWVRKAPGKGPEWVSVMNSSGGDTRYADFVKGRFTISRDNAKNTLYLQMNSLKPEDTALYYCAQGRSDIYPTFTRGQGTQVTVSS | ~100 | – |
| DC8-Alexa647-PEG-20 kDa (site-specifically PEGylated DC8) (VHH, C-terminal (Gly)3 continues as -PEG12-Cys(Alexa647, Texas Red or TCO/18F-tetrazine)-PEG5-Lys(azide); the azide is clicked to DBCO-PEG 20 kDa, Alexa647 form used for FACS, 18F form for PET and biodistribution; also called 20 kDa PEG-conjugated DC8; PEGylated DC8-Alexa647) VHH: QVQLQESGGGLVQPGGSLRLSCTASGFTFSTYYMSWVRKAPGKGPEWVSVMNSSGGDTRYADFVKGRFTISRDNAKNTLYLQMNSLKPEDTALYYCAQGRSDIYPTFTRGQGTQVTVSS | ~220 | – |
